# Experimental data published in the nanobody polyreactivity screen of Harvey et al. (2022).
# Test: yeast display, Sf9 membrane polyspecificity reagent, FACS + sequencing; frameworks hold sequencing errors
# How it was run: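 Nanobodies from a synthetic yeast display library (Saccharomyces cerevisiae BJ5465), induced 36–48 hours with galactose, were stained 1 hour at 4 °C with 10% biotinylated, detergent-solubilized Sf9 membrane reagent, enriched on streptavidin microbeads, then FACS-sorted. Anti-HA (expression) and streptavidin (reagent binding) fluorescence set low and high (top ~1%) gates. Polyreactivity labels come from the gate of origin. Genes were colony-PCR amplified, MiSeq 2 × 250 sequenced and filtered by CDR length.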
row,Sequence,polyreactivity (PSR sort gate)
1,QVQLVESGGGLVQAGGSLRLSCAASGGNFSPNAMGWYRQAPGKERELVAAISSNGGSTNYADSVKGRFTISRDNAKNTVYLKMNSLKPEDTAVYYCAGLQKRRSYWRPFYWGQGTQVTVSS,low polyreactivity
2,QVQLVESGGGLVQAGGSLRLSCAASGGSFIANAMGRYRQAPGTEREVVAAITSGGSTNYADSVKGRFTISRDNAKNTVYLQMNSLKPDDTAVYYCNAEQNPSGLYDYRGVEGEMGYWGQGTQVTVSS,low polyreactivity
3,QVQLVESGGGLVQAGGSLRLSCAASGGSFLVNDMGWYRQAPGTERELVAAITSGGGTYYADSVKGRFTISRDNAKNTVYLQMNSLNPEDTAVYYCARDTYRPIVSNESYGYWGQGTQVTVSS,low polyreactivity
4,QVQLVESGGGLVQAGGSLRLSCAASGGTCGTNAMGWYRQAPGKEREFVAAISRSGGSTNYADSVKGRFTISRDKAKNTVYLQMNSLKPEDTAVYYCATRVIVVPLGGGYYSWGQGTQVTVSS,high polyreactivity
5,QVQLVESGGGLVQAGGSLRLSCAASGGTFAGYAMGWYRQAPGKERELVAAITYRSSTTYYADSVKGRFTISRDNANNTVYLQMNSLKPEDTAVYYCAARTRGTGRNRDYWGQGTQVTVSS,high polyreactivity
6,QVQLVESGGGLVQAGGSLRLSCAASGGTFATYAMGWYRQAPGKEKELVAAISWSGGSTYYADSVKGRFTISRDNAKNTVYLQMNSLKPEDTAVYYCNALPRLGGGAEKLDYWGQGTQVTVSS,high polyreactivity
7,QVQLVESGGGLVQAGGSLRLSCAASGGTFAVNAMGWYRQAPGKEREFVAAISSRGSTYYADSVKGRFTISRDNAKNNVYLQMNSLKPEDTAVYYCAAYRSYWEVYPRMYYWGQGTQVTVSS,high polyreactivity
8,QVQLVESGGGLVQAGGSLRLSCAASGGTFAYYAMGWYRQAPGKERELVAVISRRGTSTYYADSVKGRFTISRDNAKNTVYLQMNSLKPEDTAVYYCNARTWDHPYGYWGQGTQVTVSS,high polyreactivity
9,QVQLVESGGGLVQAGGSLRLSCAASGGTFDVYTMGWYRPAPGKERELVAAISSSGARTYYADSVKGRFTISRDNAKNTVNLQMNSLKPEDTAVFYCATRSLGLRWHYYYWGQGTQVTVSS,high polyreactivity
10,QVQLVESGGGLVQAGGSLRLSCAASGGTFDVYTMGWYRQAPGKERELVAAIDNGGSTNYADSVKGRFTISRDNAKNTVYLQMNSLQPEDTAVYYCAADEVYLFWGIAEFIYDYWGQGTQVTVSS,low polyreactivity
11,QVQLVESGGGLVQAGGSLRLSCAASGGTFEFYTMGLYRQAPGKERELVAVINASGDSTYYADSVKGRFTISRDNAKNTVYLQMNSLKPEDTAVYYCAADHRGEYDYWGQGTQVTVSS,low polyreactivity
12,QVQLVESGGGLVQAGGSLRLSCAASGGTFEPNAMGWYRQPPGKEREFVAAITWNGGRTNYADSVKGRFTISRDNAKNTVYLQMNSLKPEDTAVYYCAARSYTDYNYWGQGTQVTVSS,high polyreactivity
13,QVQLVESGGGLVQAGGSLRLSCAASGGTFESYTMGWYRQAPGKERELVATISTSGGRTYYADSVKGRFTISRDNAKNTVYLQMHSLKPEDTAVYYCNKVSDAYGEYVTLHLDYWGQGTLVTVSS,low polyreactivity
14,QVQLVESGGGLVQAGGSLRLSCAASGGTFFSNAMGWYRQAPGKERELVAGITSGGRTYYADSVKGRFTISRDNAKNTVYLQMNSLKPEDTAVYYCATQSWVRYGQPEFDYWGQGTQVTVSS,high polyreactivity
15,QVQLVESGGGLVQAGGSLRLSCAASGGTFGQYAMGWYRLAPGKERELVAAITSSGGRTYYADSVKGRFTISRDNAKNTVYLQMNSLKPEDTAVYYCAADVQSRYVGEGDYWGQGTQVTVSS,high polyreactivity
16,QVQLVESGGGLVQAGGSLRLSCAASGGTFGRNAMGWYRQAPGKERELVATITRRGGSTYYADSVKGRFTISRDNAKNTVYLQMNSLKPEDTAVYYCAAAGRYSNGTGYGYWGQGTQVTVSS,high polyreactivity
